This note sets out measurements from US20220135638A1 (Takeda / Millennium, published 2022).

Square brackets hold non-standard residues; d marks the D form. Primed or numbered codes have the meaning given here. Side chains are listed from the residue outwards. Ends that are not written are not given here. * marks the point of attachment. C20 diacid = O=C(O)CCCCCCCCCCCCCCCCCCC(=O)*; C18 diacid = O=C(O)CCCCCCCCCCCCCCCCC(=O)*; C16 diacid = O=C(O)CCCCCCCCCCCCCCC(=O)*; Iva = CC[C@](C)(N)C(=O)O; PEG3′ = not defined here; AGlu = not defined here; Aib = CC(C)(N)C(=O)O

What all share (assay): cell-based or functional assay
Experiment [1] addresses human GLP-1R (Genebank Accession No. NM_002062) on hGLP-1R/CRE-luc/CHO-K1 cells (human, UniProt P43220 24-463).
Experiment [2] addresses T1, human GIPR (Genebank Accession No. U39231) on hGIPR/CRE-LUC/CHO-K1 cells (human), P48546.
T1 chain: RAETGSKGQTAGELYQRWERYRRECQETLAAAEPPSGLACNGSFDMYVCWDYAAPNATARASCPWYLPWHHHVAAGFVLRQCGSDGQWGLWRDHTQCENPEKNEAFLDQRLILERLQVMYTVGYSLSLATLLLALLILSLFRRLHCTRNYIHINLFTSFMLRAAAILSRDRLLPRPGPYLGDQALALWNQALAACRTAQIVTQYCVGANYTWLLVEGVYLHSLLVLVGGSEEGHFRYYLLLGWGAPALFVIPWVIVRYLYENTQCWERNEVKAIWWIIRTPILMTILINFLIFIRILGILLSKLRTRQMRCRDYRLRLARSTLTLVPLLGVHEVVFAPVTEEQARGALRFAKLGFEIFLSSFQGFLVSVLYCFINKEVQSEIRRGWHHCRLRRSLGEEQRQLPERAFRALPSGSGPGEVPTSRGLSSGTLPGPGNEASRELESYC

The target in experiment [3] is T2, human GLP-1R (Genebank Accession No. NM_002062) on hGLP-1R/CRE-luc/CHO-K1 cells (human), P43220.
T2 chain: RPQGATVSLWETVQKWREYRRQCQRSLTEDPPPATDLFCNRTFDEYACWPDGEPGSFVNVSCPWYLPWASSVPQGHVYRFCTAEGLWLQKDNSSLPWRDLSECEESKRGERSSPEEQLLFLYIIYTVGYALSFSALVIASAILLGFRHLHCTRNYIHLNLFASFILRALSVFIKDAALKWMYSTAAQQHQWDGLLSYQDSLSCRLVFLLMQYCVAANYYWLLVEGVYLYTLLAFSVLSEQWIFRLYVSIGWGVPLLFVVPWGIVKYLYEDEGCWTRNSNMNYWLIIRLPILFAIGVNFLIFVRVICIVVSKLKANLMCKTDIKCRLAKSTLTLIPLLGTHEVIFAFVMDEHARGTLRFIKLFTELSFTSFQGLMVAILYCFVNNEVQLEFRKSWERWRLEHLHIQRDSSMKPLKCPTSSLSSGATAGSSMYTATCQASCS

B1: Compound No. 7 (peptide)
peptide: YXEGTVVSLYSIXLDKQAQXEFVKWLLKGGPSSGAPPPSX
modifications: Aib at 2, 13, 20; Lys40(Heda-Gly-Gly-Gly-Gly-); synthesized on Sieber amide resin
Regarding B1, the “hGLP-1R (Reporter gene assay)(EC50)” value in experiment [1] is above 1000 nM.

Y[Aib]EGTFISDYSIALDR[Aib]HQ[Aib]NFVNW[Iva]LAQRPSSGAPPPSK([PEG3′-PEG3′-AGlu-C20 diacid]) (ends and bridges not checked) [Compound No. 23]: the hGIPR (polyclonal) Reporter (EC50) in experiment [2] was determined as 0.1 nM. In experiment [3], the hGLP-1R (Reporter gene assay)(EC50) is above 1000 nM.

Y[Aib]EGTFISDYSIALDR[Aib]HQ[Aib]NFVNW[Iva]LAQRPSSGAPPPSK([PEG(2)-C18 diacid]) (ends and bridges not checked) [Compound No. 42] had a hGIPR (polyclonal) Reporter (EC50) in experiment [2] of 0.03 nM. For the same molecule, in experiment [3], the hGLP-1R (Reporter gene assay)(EC50) is above 1000 nM.

B2: Compound No. 60 (peptide)
peptide: YXEGTFISDYSIALDRXHQXNFVNWXLAQRPSSGAPPPSX
modifications: MeTyr (N-methyltyrosine) at 1; Aib at 2, 17, 20; Iva at 26; Lys40(Oda-GlyGlyGlyGlyGly); synthesized on Sieber amide resin
As for B2, the “hGLP-1R (Reporter gene assay)(EC50)” value in experiment [1] is above 1000 nM. On to Y[Aib]EGTFISDYSIALDR[Aib]HQ[Aib]NFVNW[Iva]LAQRPSSGAPPPSK([PEG(2)-C20 diacid]) (ends and bridges not checked) [Compound No. 38], for which the hGIPR (polyclonal) Reporter (EC50) in experiment [2] came out at 0.05 nM. The molecule further came in with a hGLP-1R (Reporter gene assay)(EC50) in experiment [3] above 1000 nM.

In experiment [2], Y[Aib]EGTFISDYSIALDR[Aib]HQ[Aib]NFVNW[Iva]LAQRPSSGAPPPSK([PEG(2)-C16 diacid]) (ends and bridges not checked) [Compound No. 46] displayed a hGIPR (polyclonal) Reporter (EC50) of 0.01 nM. This molecule also gave a hGLP-1R (Reporter gene assay)(EC50) in experiment [3] above 1000 nM.
